From publication PMC6101370

T1: histidine kinase EnvZ from Escherichia coli (Escherichia coli) (UniProt P0AEJ4)
T1 sequence (P0AEJ4 whole entry, looked up): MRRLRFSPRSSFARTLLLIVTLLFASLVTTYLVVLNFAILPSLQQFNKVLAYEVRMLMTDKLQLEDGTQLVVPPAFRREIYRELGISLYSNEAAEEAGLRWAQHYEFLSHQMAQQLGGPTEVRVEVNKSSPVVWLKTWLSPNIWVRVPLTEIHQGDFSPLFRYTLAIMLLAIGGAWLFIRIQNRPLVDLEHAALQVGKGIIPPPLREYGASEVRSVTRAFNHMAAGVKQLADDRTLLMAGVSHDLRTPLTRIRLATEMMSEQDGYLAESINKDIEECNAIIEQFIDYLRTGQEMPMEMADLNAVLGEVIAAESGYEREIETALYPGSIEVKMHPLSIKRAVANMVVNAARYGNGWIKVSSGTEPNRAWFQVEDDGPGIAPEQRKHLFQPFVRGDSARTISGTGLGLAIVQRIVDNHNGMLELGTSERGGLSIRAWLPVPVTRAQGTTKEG


Target: T1, histidine kinase EnvZ from Escherichia coli (Escherichia coli)

in vitro phosphotransfer rate from EnvZ, ratio v (mutant) / v (w.t.) | Binder
1 | Spo0F M55L (natural protein) MMNEKILIVDDQYGIRILLNEVFNKEGYQTFQAANGLQALDIVTKERPDLVLLDLKIPGMDGIEILKRMKVIDENIRVIIMTAYGELDMIQESKELGALTHFAKPFDIDEIRDAVKKYLPLKSN
1 | Spo0F I108L (natural protein) MMNEKILIVDDQYGIRILLNEVFNKEGYQTFQAANGLQALDIVTKERPDLVLLDMKIPGMDGIEILKRMKVIDENIRVIIMTAYGELDMIQESKELGALTHFAKPFDLDEIRDAVKKYLPLKSN
